Test results: PMC5114622, “In vivo protein interaction network analysis reveals porin-localized antibiotic inactivation in Acinetobacter baumannii strain AB5075” (Nature Communications, 2016)
Where “and” joins values, the source holds several entries; their conditions need not be identical. Equal values may be shown once.

Molecular target: the molecule itself
Experiment: cross-linking + co-IP; AB5075-pMMB-oxa23 cells cross-linked with BDP-NHP, lysates denatured with SDS, anti-HA agarose IP; immunoblots with anti-HA, anti-OmpA, streptavidin; DMSO-treated control

B1: Oxa23-HA-Strep (enzyme)
chain: CTVQHNLINETPSQIVQGHNQVIHQYFDEKNTSGVLVIQTDKKINLYGNALSRANTEYVPASTFKMLNALIGLENQKTDINEIFKWKGEKRSFTAWEKDMTLGEAMKLSAVPVYQELARRIGLDLMQKEVKRIGFGNAEIGQQVDNFWLVGPLKVTPIQEVEFVSQLAHTQLPFSEKVQANVKNMLLLEESNGYKIFGKTGWAMDIKPQVGWLTGWVEQPDGKIVAFALNMEMRSEMPASIRNELLMKSLKQLNII
notes: Oxa-23 of Acinetobacter baumannii AB5075; oxa-23 gene with the TAA stop codon omitted so that the HA-Strep tag of the pMMB vector follows; I take the same for this construct and that the signal peptide is cut on export; also called Oxa-23 with C-terminal HA-Strep tags; tagged Oxa-23; source: A. baumannii AB5075 WT cells transformed with pMMB-oxa23-HA-Strep (AB5075-pMMB-oxa23), in lysate; not …
stoichiometry N: 2 and 4
